Experimental data as given in PMC2483528.

How the values were obtained:
Experiment in all cases: pull-down
GST-Gαs (human) (human) = GST-Gαs (human) (human) (UniProt P63092)
[1] = target: GST-Gαi3 G203A (rat, inactive mutant) (rat) (UniProt P08753)
[2] = target: GST-Gαi3 wild type (rat) (rat) (UniProt P08753)

UniProt P63092, sequence (P63092 2-394): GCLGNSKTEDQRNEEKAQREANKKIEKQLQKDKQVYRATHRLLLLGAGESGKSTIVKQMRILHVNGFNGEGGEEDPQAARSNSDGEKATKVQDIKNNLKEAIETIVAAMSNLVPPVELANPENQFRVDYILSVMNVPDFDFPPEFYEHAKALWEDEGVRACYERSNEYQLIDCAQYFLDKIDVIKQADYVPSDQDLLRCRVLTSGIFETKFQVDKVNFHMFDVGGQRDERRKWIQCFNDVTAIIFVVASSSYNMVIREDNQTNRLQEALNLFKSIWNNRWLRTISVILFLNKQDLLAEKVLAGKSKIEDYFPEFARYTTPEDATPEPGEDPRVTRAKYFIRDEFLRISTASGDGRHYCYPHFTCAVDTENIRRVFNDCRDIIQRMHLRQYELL

percent of the total GIV bound [2] | percent of GIV bound to GST-Gαi3 [2] | Substance | fold less GIV bound than by GST-Gαi3 (GST-Gαs (human) (human)) | fold more GIV bound than by Gαi3Q204L [1]
10 to 30% | – | GIV (Gα-interacting vesicle-associated protein), endogenous in HeLa cell lysate (natural protein) | 100 to 300 fold | 10 to 15 fold
– | 13% | GIV S1416A, in vitro translated (natural protein) | – | –
– | 14% | GIV S1416D, in vitro translated (natural protein) | – | –

Substance | percent of the total GIV bound [2] | percent of GIV bound to GST-Gαi3 [2] | fold less GIV bound than by GST-Gαi3 (GST-Gαs (human) (human)) | fold more GIV bound than by Gαi3Q204L [1]
GIV, full length, in vitro translated (natural protein) | – | 14% | 100 to 300 fold | 10 to 15 fold
